The values below come from patent publication US20240228562A1, “NOVEL LIPOCALIN MUTEINS SPECIFIC FOR CONNECTIVE TISSUE GROWTH FACTOR (CTGF)” (PIERIS PHARMACEUTICALS GMBH, priority 2021, published 2024).

A short description of data set [1]: Thermal stability assessment by nanoDSC. The class given is physicochemical. The conditions noted are these: 1 mg/mL in PBS, scan 25-100° C. at 1° C./min; for TM: major transition. Here is the method:
To determine the melting temperatures (Tms) of the lipocalin muteins, which is a general indicator for folding stability, the CTGF specific muteins, at a protein concentration of 1 mg/mL in PBS (Gibco), were scanned (25-100° C.) at 1° C./min using a capillary nanoDSC instrument (CSC 6300, TA Instruments). […] Several unfolding events can contribute to the observed thermogram. In cases with multiple transitions, the one with the major unfolding energy best represents the overall protein fold and is reported. Muteins were produced as described in Example 3. SEQ ID NOs: 3, 7, 9, 25, and 29 were expressed using E. coli, the other muteins were expressed using CHO cells.
The resulting maximum melting temperatures as well as the onset temperature of melting for exemplary lipocalin muteins and fusion proteins are listed in Table 3 below.

The target in another data set is T1, human CTGF (Homo sapiens, UniProt P29279, H83D).
T1 construct: purchased Creative Biomart
As to the kind of experiment: SPR binding kinetics and affinity, human CTGF. The note with it: 25° C., 1:1 binding model. Further details: key to human CTGF kon / human CTGF koff / human CTGF KD: B binding without determination of kinetics constants. Here is the method: (§1) Surface plasmon resonance (SPR) was used to measure binding kinetics and affinity of the representative lipocalin muteins disclosed herein.
(§2) The binding of exemplary lipocalin muteins to human (Creative Biomart), cynomolgus, rat (R&D Systems) and mouse CTGF (Abbexa) was determined by SPR using a Biacore instrument (Cytiva, formerly GE Healthcare). Some targets were fused to a human IgG1 Fc tag, and captured via the anti-human IgG antibody kit, others were directly immobilized.
(§3) For some measurements, human CTGF with a human IgG1 Fc Tag or rat or murine CTGF without a tag were directly immobilized to a CM5 Chip. The carboxyl groups on the chip were activated using 1-ethyl-3-(3-dimethylaminopropyl)-carbodiimide (EDC) and N-hydroxysuccinimide (NHS). Subsequently, the targets at a concentration of 3-5 μg/mL in 10 mM sodium acetate (pH) 4.5 were applied at a flow rate of 10 μL/min until an immobilization level of 300-1100 resonance units was achieved. Residual non-reacted NHS-esters were blocked by passing a solution of 1 M ethanolamine across the surface. The reference channel was activated/deactivated. For the capture setting, targets with an IgG Fc Tag at 0.25-2.5 μg/mL in HBS-EP+ buffer were captured by the anti-human IgG-Fc antibody at the chip surface for 180 s at a flow rate of 10 μL/min.
(§4) The binding assay was carried out with a contact time of 180 s, a dissociation time of 900-3600 s and a flow rate of 30 μL/min. All measurements were performed at 25° C. […] For the directly immobilized targets, the same regeneration conditions were used. Prior to the protein measurements, three startup cycles were performed for conditioning purposes. Data were evaluated with Biacore Evaluation software. Double referencing was used and the 1:1 binding model was used to fit the raw data.
On the technique in general: SPR reads the build-up and loss of mass on a sensor chip optically.

Another data set concerns the target T2, Murine CTGF (Mus musculus, UniProt P29268).
T2 construct: purchased Abbexa
T2 sequence (P29268 26-348): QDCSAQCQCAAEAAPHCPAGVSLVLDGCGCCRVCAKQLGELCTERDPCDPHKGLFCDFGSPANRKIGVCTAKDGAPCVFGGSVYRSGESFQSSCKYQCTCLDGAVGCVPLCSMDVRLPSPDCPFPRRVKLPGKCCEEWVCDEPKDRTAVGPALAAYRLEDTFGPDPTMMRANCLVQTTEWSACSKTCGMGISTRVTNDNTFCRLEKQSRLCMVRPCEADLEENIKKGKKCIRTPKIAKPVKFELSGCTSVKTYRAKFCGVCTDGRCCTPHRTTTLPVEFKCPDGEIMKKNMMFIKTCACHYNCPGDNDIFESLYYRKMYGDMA
Kind of data set: SPR binding kinetics and affinity, murine CTGF. Further details: key to Murine CTGF kon / Murine CTGF koff / Murine CTGF KD: B binding without determination of kinetics constants. The note with it: 25° C., 1:1 binding model. Here is the method:
as §1, §2, §3, §4
The values determined for kon, koff and the resulting equilibrium dissociation constant (KD) for exemplary lipocalin muteins are summarized in Table 4.

T1 sequence (P29279 with tags, fused parts or gaps H83D): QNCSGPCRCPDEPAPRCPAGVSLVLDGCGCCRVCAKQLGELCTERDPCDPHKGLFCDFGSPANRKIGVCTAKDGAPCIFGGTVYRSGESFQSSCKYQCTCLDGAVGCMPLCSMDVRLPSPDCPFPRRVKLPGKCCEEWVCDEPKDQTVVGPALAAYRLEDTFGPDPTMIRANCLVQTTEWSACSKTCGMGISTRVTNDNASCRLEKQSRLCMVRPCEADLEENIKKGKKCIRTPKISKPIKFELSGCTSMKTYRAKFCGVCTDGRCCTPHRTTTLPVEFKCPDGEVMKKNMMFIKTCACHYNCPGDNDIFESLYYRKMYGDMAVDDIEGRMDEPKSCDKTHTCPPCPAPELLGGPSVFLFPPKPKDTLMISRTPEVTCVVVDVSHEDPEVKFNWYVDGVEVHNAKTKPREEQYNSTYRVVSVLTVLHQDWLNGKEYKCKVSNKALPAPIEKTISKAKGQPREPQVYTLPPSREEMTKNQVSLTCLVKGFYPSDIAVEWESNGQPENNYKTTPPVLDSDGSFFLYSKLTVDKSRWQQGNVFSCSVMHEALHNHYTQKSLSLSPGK

B1: SEQ ID NO: 70: fusion protein comprising two CTGF-binding lipocalin muteins (protein)
chain: QDSTSDLIPAPPLSKVPLQQNFQDNQFQGKWYVVGWAGNVKLREDKQPQKMSATIYELKEDKSYDVTEVVFEQKKCHYIIKTFVPGSQPGEFTAGDIKSPPGYTSSLVRVVSTNYNQHAMVFFKKVSQNREFFWITLYGRTKELTSELKENFIRFSKSLGLPENHIVFPVPIDQCIDGGGGGSGGGGSGGGGSQDSTSDLIPAPPLSKVPLQQNFQDNQFQGKWYVVGLAGNAILREDKQPAKMFATIYELKEDKSYDVTSVRFEAKSCKYTIKTFVPGSQPGEFTAGYIKSAPGQTSTLVRVVSTNYNQHAMVFFKHVTQNREIFVITLYGRTKELTSELKENFIRFSKSLGLPENHIVFPVPIDQCIDG
modifications: fusion protein
With B1, in data set [1], the “ONSET MELTING” value was 55 °C and the TM came to 73 °C.

B2: SEQ ID NO: 71: fusion protein comprising two CTGF-binding lipocalin muteins (protein)
chain: QDSTSDLIPAPPLSKVPLQQNFQDNQFQGKWYVVGLAGNAILREDKYPAKMFATIYELKEDKSYDVTSVRFENKSCVYTIKTFVPGSQPGEFTTGNIKSAPGQTSTLVRVVSTNYNQHAMVFFKHVSQNREFFVITLYGRTKELTSELKENFIRFSKSLGLPENHIVFPVPIDQCIDGGGGGSGGGGSGGGGSQDSTSDLIPAPPLSKVPLQQNFQDNQFQGKWYVVGWAGNVKLREDKQPQKMSATIYELKEDKSYDVTEVVFEQKKCHYIIKTFVPGSQPGEFTAGDIKSPPGYTSSLVRVVSTNYNQHAMVFFKKVSQNREFFWITLYGRTKELTSELKENFIRFSKSLGLPENHIVFPVPIDQCIDG
modifications: fusion protein
For the molecule B2, in data set [1], the “ONSET MELTING” value amounted to 67 °C and the TM stood at 76 °C.

B3: SEQ ID NO: 73: fusion protein comprising two CTGF-binding lipocalin muteins (protein)
chain: QDSTSDLIPAPPLSKVPLQQNFQDNQFQGKWYVVGLAGNAILREDKYPAKMFATIYELKEDKSYDVTSVRFENKSCVYTSKTFVPGSQPGEFTTGNIKSAPGQTSTLVRVVSTNYNQHAMVFFKHVSQNREFFVITLYGRTKELTSELKENFIRFSKSLGLPENHIVFPVPIDQCIDGGGGGSGGGGSGGGGSQDSTSDLIPAPPLSKVPLQQNFQDNQFQGKWYVVGWAGNVKLREDKQPQKMSATIYELKEDKSYDVTEVVFEQKKCHYIIKTFVPGSQPGEFTAGDIKSPPGYTSSLVRVVSTNYNQHAMVFFKKVSQNREFFWITLYGRTKELTSELKENFIRFSKSLGLPENHIVFPVPIDQCIDG
modifications: fusion protein
As to B3, in data set [1], the “ONSET MELTING” value turned out to be 71 °C and the TM came to 75 °C.

B4: SEQ ID NO: 17: optimized CTGF-binding hNGAL lipocalin mutein (protein)
chain: QDSTSDLIPAPPLSKVPLQQNFQDNQFQGKWYVVGLAGNAILRTDKQPAKMFATIYELKEDKSYDVTSVRFEAKSCVYTSKTFVPGSQPGEFTAGNIKSAPGQTSTLVRVVSTNYNQHAMVFFKHVSQNREFFVITLYGRTKELTSELKENFIRFSKSLGLPENHIVFPVPIDQCIDG
modifications: lipocalin mutein
Consider B4, for which, in data set [1], the “ONSET MELTING” value was found to be 59 °C and the TM was 74 °C. In addition, in the data set with human CTGF, the “human CTGF KD” value is on record as “B”, the “human CTGF koff” value is given as “B” and the “human CTGF kon” value was “B”. In the data set with Murine CTGF, the “Murine CTGF KD” value is on record as “B”, the “Murine CTGF koff” value was “B” and the “Murine CTGF kon” value was “B”.

B5: SEQ ID NO: 20: optimized CTGF-binding hNGAL lipocalin mutein (protein)
chain: QDSTSDLIPAPPLSKVPLQQNFQDNQFQGKWYVVGLAGNAILREDKQPAKMFATIYELKEDKSYDVTSVRFEAKSCSYTIKTFVPGSQPGEFTAGNIKSAPGQTSTLVRVVSTNYNQHAMVFAKAVQLNREHFFITLYGRTKELTSELKENFIRFSKSLGLPENHIVFPVPIDQCIDG
modifications: lipocalin mutein
As for B5, in data set [1], the “ONSET MELTING” value is 46 °C and the TM was 61 °C. In the data set with human CTGF, the “human CTGF KD” value is “B”, the “human CTGF koff” value was “B” and the “human CTGF kon” value is recorded as “B”. Further, in the data set with Murine CTGF, the “Murine CTGF KD” value is given as “B”, the “Murine CTGF koff” value is listed as “B” and the “Murine CTGF kon” value is recorded as “B”.

B6: SEQ ID NO: 69: fusion protein comprising two CTGF-binding lipocalin muteins (protein)
chain: QDSTSDLIPAPPLSKVPLQQNFQDNQFQGKWYVVGLAGNAILREDKQPAKMFATIYELKEDKSYDVTSVRFEAKSCSYTSKTFVPGSQPGEFTAGNIKSAPGQTSTLVRVVSTNYNQHAMVFFKHVSQNRETFVITLYGRTKELTSELKENFIRFSKSLGLPENHIVFPVPIDQCIDGGGGGSGGGGSGGGGSQDSTSDLIPAPPLSKVPLQQNFQDNQFQGKWYVVGLAGNYRLREDKDPSKMGATIYELKEDKSYDVTQVQFDDKKCLYVIETFVPGSQPGEFTLGAIKSYPGLTSQLVRVVSTNYNQHAMVFVKKVWPNLEYFQIVLYGRTKELTSELKENFIRFSKSLGLPENHIVFPVPIDQCIDG
modifications: fusion protein
Consider B6, for which, in data set [1], the “ONSET MELTING” value is 57 °C and the TM amounted to 64 °C.

B7: SEQ ID NO: 72: fusion protein comprising two CTGF-binding lipocalin muteins (protein)
chain: QDSTSDLIPAPPLSKVPLQQNFQDNQFQGKWYVVGLAGNAILREDKYPAKMFATIYELKEDKSYDVTSVRFENKSCVYTIKTFVPGSQPGEFTTGNIKSAPGQTSTLVRVVSTNYNQHAMVFFKHVSQNREFFVITLYGRTKELTSELKENFIRFSKSLGLPENHIVFPVPIDQCIDGGGGGSGGGGSGGGGSQDSTSDLIPAPPLSKVPLQQNFQDNQFQGKWYVVGLAGNYRLREDKDPSKMGATIYELKEDKSYDVTQVQFDDKKCLYVIETFVPGSQPGEFTLGAIKSYPGLTSQLVRVVSTNYNQHAMVFVKKVWPNLEYFQIVLYGRTKELTSELKENFIRFSKSLGLPENHIVFPVPIDQCIDG
modifications: fusion protein
As for B7, in data set [1], the “ONSET MELTING” value stood at 62 °C and the TM turned out to be 66 °C.

B8: SEQ ID NO: 75: fusion protein comprising two CTGF-binding lipocalin muteins (protein)
chain: QDSTSDLIPAPPLSKVPLQQNFQDNQFQGKWYVVGLAGNAILREDKQPAKMFATIYELKEDKSYDVTSVRFEAKSCKYTIKTFVPGSQPGEFTAGYIKSAPGQTSTLVRVVSTNYNQHAMVFFKHVTQNREIFVITLYGRTKELTSELKENFIRFSKSLGLPENHIVFPVPIDQCIDGGGGGSGGGGSGGGGSQDSTSDLIPAPPLSKVPLQQNFQDNQFQGKWYVVGLAGNYRLREDKDPSKMGATIYELKEDKSYDVTQVQFDDKKCLYVIETFVPGSQPGEFTLGAIKSYPGLTSQLVRVVSTNYNQHAMVFVKKVWPNLEYFQIVLYGRTKELTSELKENFIRFSKSLGLPENHIVFPVPIDQCIDG
modifications: fusion protein
In the case of B8, in data set [1], the “ONSET MELTING” value was found to be 58 °C and the TM was found to be 65 °C.
